Consider four molecules from paper PMC9513909, “Genomic distribution and context dependent functionality of novel WRKY transcription factor binding sites”.

In data set [1] the target is T1, WRKY70 (Arabidopsis thaliana, UniProt Q9LY00 1-294).
T1 sequence: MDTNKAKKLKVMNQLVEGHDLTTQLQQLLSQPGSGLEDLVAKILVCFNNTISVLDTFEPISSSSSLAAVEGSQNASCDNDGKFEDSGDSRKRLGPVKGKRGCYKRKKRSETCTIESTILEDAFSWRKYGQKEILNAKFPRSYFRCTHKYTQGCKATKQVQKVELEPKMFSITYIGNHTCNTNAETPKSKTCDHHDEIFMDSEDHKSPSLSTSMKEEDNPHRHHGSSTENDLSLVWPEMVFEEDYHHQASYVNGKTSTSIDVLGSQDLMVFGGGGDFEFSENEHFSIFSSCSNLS
The data set can be described thus: competition; 4000-fold excess against labelled S2; EMSA with 3' biotin-labelled probes (LightShift kit detection); buffer, salt, pH and temperature not given (earlier protocols cited). Particulars: protein: recombinant; label: unlabelled. On the technique in general: Mobility shift assays separate free from complexed probe on a gel.

Data set [2] addresses T2, WRKY50BD (Arabidopsis thaliana, UniProt Q8VWQ5 86-173). The description is as above. Particulars: protein: recombinant; label: unlabelled.
For data set [3], the target named is T1, WRKY70. The data set can be described thus: EMSA; shift abolished or strongly reduced by 4000-fold unlabelled S2; EMSA with 3' biotin-labelled probes (LightShift kit detection); buffer, salt, pH and temperature not given (earlier protocols cited). Particulars: protein: recombinant; label: 3' biotin (probe).
For data set [4], the target named is T2, WRKY50BD. The data set is described as above. Particulars: protein: recombinant; label: 3' biotin (probe).
Data set [5] deals with T1, WRKY70. The data set can be described thus: EMSA; EMSA with 3' biotin-labelled probes (LightShift kit detection); buffer, salt, pH and temperature not given (earlier protocols cited). Particulars: protein: recombinant; label: 3' biotin (probe).
For data set [6], the target named is T2, WRKY50BD. Nature of the data set: EMSA; shift abolished or strongly reduced by 4000-fold unlabelled S1; EMSA with 3' biotin-labelled probes (LightShift kit detection); buffer, salt, pH and temperature not given (earlier protocols cited). Particulars: protein: recombinant; label: 3' biotin (probe).
Data set [7] has as its target T2, WRKY50BD. The data set can be described thus: competition; 4000-fold excess against labelled S1; EMSA with 3' biotin-labelled probes (LightShift kit detection); buffer, salt, pH and temperature not given (earlier protocols cited). Particulars: protein: recombinant; label: unlabelled.

T2 sequence (Q8VWQ5 86-173): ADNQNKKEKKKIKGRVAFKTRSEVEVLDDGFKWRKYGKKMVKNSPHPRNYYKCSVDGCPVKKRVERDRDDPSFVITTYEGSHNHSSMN

B1: S2mut1 (dsDNA)
DNA 1: ATCGTCTAAGAGACAGTCCCTCTCGTAACTTTAT
DNA 2: ATAAAGTTACGAGAGGGACTGTCTCTTAGACGAT
With B1, the binding result in data set [1] and in data set [2] was “no binding” in each case.

B2: S2 (dsDNA)
DNA 1: ATCGTCTAAGAGACGACTTTTCTCGTAACTTTAT
DNA 2: ATAAAGTTACGAGAAAAGTCGTCTCTTAGACGAT
As for B2, the binding result in data set [3] and in data set [4] was “binds” throughout.

B3: S1 (dsDNA)
DNA 1: CACATTTACATTGCGACTTTTCTTGCATGCCGTC
DNA 2: GACGGCATGCAAGAAAAGTCGCAATGTAAATGTG
Regarding B3, the values for the binding result in data set [5] and in data set [6] were “no binding” and “binds”, respectively.

B4: S1mut1 (dsDNA)
DNA 1: CACATTTACATTGCAGTCCCTCTTGCATGCCGTC
DNA 2: GACGGCATGCAAGAGGGACTGCAATGTAAATGTG
Turning to B4, in data set [7], the binding result is on record as “no binding”.
